Test results as given in US8242078B2, “Therapeutics to inhibit MLL-menin interaction for treating leukemia” (The University of Chicago, priority 2006, dated 2012).
“Also recorded” adds a separate entry of the source. Peptide text beside a SMILES is read from it.

target: T1, interaction of transfected MLL with endogenous menin (Homo sapiens, UniProt O00255); assay: Disruption of binding of transfected FLAG-tagged MLL 1-330 to endogenous menin (anti-FLAG immunoprecipitation, anti-menin Western blot); settings: each peptide tested at 10, 20, and 30 μM
T1 construct: endogenous in cells; host or cells: 293 cells (lysate; cells transfected with FLAG-MLL 1-330)
T1 sequence (O00255 1-610): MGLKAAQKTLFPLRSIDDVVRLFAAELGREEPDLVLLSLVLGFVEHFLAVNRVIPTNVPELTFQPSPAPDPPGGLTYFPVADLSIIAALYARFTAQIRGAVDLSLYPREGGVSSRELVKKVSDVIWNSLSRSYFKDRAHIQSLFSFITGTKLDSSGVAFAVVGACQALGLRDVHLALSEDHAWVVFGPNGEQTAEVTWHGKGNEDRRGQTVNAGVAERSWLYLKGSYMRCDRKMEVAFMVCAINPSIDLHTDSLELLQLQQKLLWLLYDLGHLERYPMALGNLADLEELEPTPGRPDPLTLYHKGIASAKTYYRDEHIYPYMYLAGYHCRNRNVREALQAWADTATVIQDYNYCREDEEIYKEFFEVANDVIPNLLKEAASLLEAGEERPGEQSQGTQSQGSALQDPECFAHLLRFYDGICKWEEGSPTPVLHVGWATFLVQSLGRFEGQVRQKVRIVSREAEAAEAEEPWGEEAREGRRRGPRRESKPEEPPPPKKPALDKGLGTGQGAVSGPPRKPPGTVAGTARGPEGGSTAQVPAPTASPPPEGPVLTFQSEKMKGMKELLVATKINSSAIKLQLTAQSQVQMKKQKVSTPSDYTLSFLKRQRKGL
Protocol: To determine the precise domain that mediates the binding of MLL to menin, a series of peptides from the N-terminus of MLL were synthesized. To assess disruption of binding of transfected MLL to endogenous menin, a FLAG-tagged MLL 1-330 construct was transfected into 293 cells and the cell lysates were incubated with a series of peptides listed below or with water as a control. Cell lysates were immunoprecipitated with anti-FLAG antibody (Sigma), separated by SDS-PAGE and blotted with an anti-menin antibody (Bethyl Laboratories Inc, or Santa-Cruz). The amino acid numbers from the N-terminus of MLL are indicated below (preceding the amino acid sequence) for the peptides analyzed for their ability to disrupt the interaction of MLL and menin.
Conditional inactivation of menin results in the reversal of the transforming properties of MLL fusion proteins. A high affinity menin binding domain has been localized to the N-terminal residues of MLL, and deletion of residues 6 through 10 of MLL prevents MLL-ELL from transforming hematopoietic progenitor cells. To target the MLL-menin interaction, a series of peptides were developed for the potential to block the interaction of menin with MLL. To establish the activity of these peptides, lysates of cells transfected with FLAG-tagged N-terminal MLL sequences were examined. The lysates were immunoprecipitated with a FLAG antibody, incubated with either an MLL peptide or a control scrambled peptide, and then blotted with an anti-menin antibody. […] To examine the activity of the TAT-MLL peptide, mouse and human leukemia cell lines were treated with the TAT-MLL peptide. […] (#TIB-202, American Type Culture Collection, Manassas, Va.).

Row | Compound | inhibition of the binding of transfected MLL 1-330 to endogenous menin (Western blot, FIG. 2)
1 | CRWRFPARPG (SEQ ID NO: 14) [MLL peptide 5-14] | dose-dependent inhibition
2 | RKKRRQRRR-GG-MAHSCRWRFPARPGTTGG (SEQ ID NO: 17) (RKKRRQRRRGGMAHSCRWRFPARPGTTGG) [TAT-MLL 1-18, longer MLL peptide, residues 1-18, fused to TAT] | dose-dependent inhibition

same assay, conditions: lysates of 293 cells transfected with FLAG-tagged MLL 1-330, incubated with peptide; anti-FLAG IP, anti-menin blot

Row | Compound | block of the interaction of transfected MLL with endogenous menin (Western blot, FIG. 1)
3 | AHSCRWRFPARPG (SEQ ID NO: 11) [MLL peptide 2-14, peptide from the N-terminus of MLL, amino acids 2-14] | block the interaction of transfected MLL with endogenous menin
4 | AHSCRWRFPARPGTTGG (SEQ ID NO: 7) [MLL peptide 2-18, peptide from the N-terminus of MLL, amino acids 2-18] | block the interaction of transfected MLL with endogenous menin
5 | CRWRFPARPG (SEQ ID NO: 14) [MLL peptide 5-14] | block the interaction of transfected MLL with endogenous menin; also recorded: sufficient to block interaction with endogenous menin
6 | CRWRFPARPGTTGG (SEQ ID NO: 10) [MLL peptide 5-18, peptide from the N-terminus of MLL, amino acids 5-18] | block the interaction of transfected MLL with endogenous menin
7 | HSCRWRFPARPG (SEQ ID NO: 12) [MLL peptide 3-14, peptide from the N-terminus of MLL, amino acids 3-14] | block the interaction of transfected MLL with endogenous menin
8 | HSCRWRFPARPGTTGG (SEQ ID NO: 8) [MLL peptide 3-18, peptide from the N-terminus of MLL, amino acids 3-18] | block the interaction of transfected MLL with endogenous menin
9 | MAHSCRWRFP (SEQ ID NO: 19) [MLL peptide 1-10, peptide from the N-terminus of MLL, amino acids 1-10] | do not block the interaction of MLL with menin
10 | MAHSCRWRFPA (SEQ ID NO: 20) [MLL peptide 1-11, peptide from the N-terminus of MLL, amino acids 1-11] | do not block the interaction of MLL with menin
11 | MAHSCRWRFPAR (SEQ ID NO: 21) [MLL peptide 1-12, peptide from the N-terminus of MLL, amino acids 1-12] | do not block the interaction of MLL with menin
12 | MAHSCRWRFPARP (SEQ ID NO: 1) [MLL peptide 1-13, peptide from the N-terminus of MLL, amino acids 1-13] | block the interaction of transfected MLL with endogenous menin
13 | MAHSCRWRFPARPG (SEQ ID NO: 2) [MLL peptide 1-14, peptide from the N-terminus of MLL, amino acids 1-14] | block the interaction of transfected MLL with endogenous menin
14 | MAHSCRWRFPARPGTTGG (SEQ ID NO: 3) [MLL peptide 1-18, peptide from the N-terminus of MLL, amino acids 1-18] | block the interaction of transfected MLL with endogenous menin
15 | MAHSCRWRFPARPGTTGGGGGG (SEQ ID NO: 4) [MLL peptide 1-22, peptide from the N-terminus of MLL, amino acids 1-22] | block the interaction of transfected MLL with endogenous menin
16 | MAHSCRWRFPARPGTTGGGGGGGRRG (SEQ ID NO: 5) [MLL peptide 1-26, peptide from the N-terminus of MLL, amino acids 1-26] | block the interaction of transfected MLL with endogenous menin
17 | MAHSCRWRFPARPGTTGGGGGGGRRGLGGG (SEQ ID NO: 6) [MLL peptide 1-30, peptide from the N-terminus of MLL, amino acids 1-30] | block the interaction of transfected MLL with endogenous menin
18 | RFPARPGTTGG (SEQ ID NO: 24) [MLL peptide 8-18, peptide from the N-terminus of MLL, amino acids 8-18] | do not block the interaction of MLL with menin
19 | RWRFPARPG (SEQ ID NO: 25) [MLL peptide 6-14, peptide from the N-terminus of MLL, amino acids 6-14] | do not block the interaction of MLL with menin
20 | RWRFPARPGTTGG (SEQ ID NO: 22) [MLL peptide 6-18, peptide from the N-terminus of MLL, amino acids 6-18] | do not block the interaction of MLL with menin
21 | SCRWRFPARPG (SEQ ID NO: 13) [MLL peptide 4-14, peptide from the N-terminus of MLL, amino acids 4-14] | block the interaction of transfected MLL with endogenous menin
22 | SCRWRFPARPGTTGG (SEQ ID NO: 9) [MLL peptide 4-18, peptide from the N-terminus of MLL, amino acids 4-18] | block the interaction of transfected MLL with endogenous menin
23 | WRFPARPGTTGG (SEQ ID NO: 23) [MLL peptide 7-18, peptide from the N-terminus of MLL, amino acids 7-18] | do not block the interaction of MLL with menin

tested on: normal human CD34+ cells; assay: Erythroid differentiation of normal human CD34+ cells, day 10; type: cell-based; settings: 7.5 μm or 10 μm
Protocol: (§1) To assess the effects of TAT-MLL peptide on hematopoiesis, normal human CD34^+ cells were incubated with either the TAT-MLL peptide or the TAT-scrambled peptide at a concentration of either 7.5 μm or 10 μm. There was no effect of either the TAT-MLL peptide or the TAT-scrambled peptide on myeloid or erythroid differentiation. […] CD14-PE, CD15-FITC, CD71-FITC and GlyA (CD235a)-PE antibodies were obtained from Becton Dickinson

Row | Compound | effect on erythroid differentiation (in words)
24 | C[C@H](NC(=O)[C@@H]1CCCN1C(=O)[C@H](Cc1ccccc1)NC(=O)[C@H](CCCNC(=N)N)NC(=O)[C@H](Cc1c[nH]c2ccccc12)NC(=O)[C@H](CCCNC(=N)N)NC(=O)[C@H](CS)NC(=O)CNC(=O)CNC(=O)[C@H](CCCNC(=N)N)NC(=O)[C@H](CCCNC(=N)N)NC(=O)[C@H](CCCNC(=N)N)NC(=O)[C@H](CCC(N)=O)NC(=O)[C@H](CCCNC(=N)N)NC(=O)[C@H](CCCNC(=N)N)NC(=O)[C@H](CCCCN)NC(=O)[C@H](CCCCN)NC(=O)[C@@H](N)CCCNC(=N)N)C(=O)N[C@@H](CCCNC(=N)N)C(=O)N1CCC[C@H]1C(=O)NCC(=O)O [TAT-MLL, RKKRRQRRR-GG-CRWRFPARPG (SEQ ID NO: 15)] (H-RKKRRQRRRGGCRWRFPARPG-OH) | no effect
25 | C[C@H](NC(=O)[C@H](CCCNC(=N)N)NC(=O)CNC(=O)CNC(=O)[C@H](CCCNC(=N)N)NC(=O)[C@H](CCCNC(=N)N)NC(=O)[C@H](CCCNC(=N)N)NC(=O)[C@H](CCC(N)=O)NC(=O)[C@H](CCCNC(=N)N)NC(=O)[C@H](CCCNC(=N)N)NC(=O)[C@H](CCCCN)NC(=O)[C@H](CCCCN)NC(=O)[C@@H](N)CCCNC(=N)N)C(=O)N[C@@H](Cc1ccccc1)C(=O)N[C@@H](CCCNC(=N)N)C(=O)N1CCC[C@H]1C(=O)N[C@@H](CS)C(=O)N1CCC[C@H]1C(=O)N[C@@H](CCCNC(=N)N)C(=O)N[C@@H](Cc1c[nH]c2ccccc12)C(=O)NCC(=O)O [TAT-scrambled, RKKRRQRRR-GG-RAFRPCPRWG (SEQ ID NO: 18), reference compound] (H-RKKRRQRRRGGRAFRPCPRWG-OH) | no effect

tested on: normal human CD34+ cells; assay: Myeloid differentiation of normal human CD34+ cells, day 10; type: cell-based; settings: 7.5 μm or 10 μm
Protocol: as §1

Row | Compound | effect on myeloid differentiation (in words)
26 | C[C@H](NC(=O)[C@@H]1CCCN1C(=O)[C@H](Cc1ccccc1)NC(=O)[C@H](CCCNC(=N)N)NC(=O)[C@H](Cc1c[nH]c2ccccc12)NC(=O)[C@H](CCCNC(=N)N)NC(=O)[C@H](CS)NC(=O)CNC(=O)CNC(=O)[C@H](CCCNC(=N)N)NC(=O)[C@H](CCCNC(=N)N)NC(=O)[C@H](CCCNC(=N)N)NC(=O)[C@H](CCC(N)=O)NC(=O)[C@H](CCCNC(=N)N)NC(=O)[C@H](CCCNC(=N)N)NC(=O)[C@H](CCCCN)NC(=O)[C@H](CCCCN)NC(=O)[C@@H](N)CCCNC(=N)N)C(=O)N[C@@H](CCCNC(=N)N)C(=O)N1CCC[C@H]1C(=O)NCC(=O)O [TAT-MLL, RKKRRQRRR-GG-CRWRFPARPG (SEQ ID NO: 15)] (H-RKKRRQRRRGGCRWRFPARPG-OH) | no effect
27 | C[C@H](NC(=O)[C@H](CCCNC(=N)N)NC(=O)CNC(=O)CNC(=O)[C@H](CCCNC(=N)N)NC(=O)[C@H](CCCNC(=N)N)NC(=O)[C@H](CCCNC(=N)N)NC(=O)[C@H](CCC(N)=O)NC(=O)[C@H](CCCNC(=N)N)NC(=O)[C@H](CCCNC(=N)N)NC(=O)[C@H](CCCCN)NC(=O)[C@H](CCCCN)NC(=O)[C@@H](N)CCCNC(=N)N)C(=O)N[C@@H](Cc1ccccc1)C(=O)N[C@@H](CCCNC(=N)N)C(=O)N1CCC[C@H]1C(=O)N[C@@H](CS)C(=O)N1CCC[C@H]1C(=O)N[C@@H](CCCNC(=N)N)C(=O)N[C@@H](Cc1c[nH]c2ccccc12)C(=O)NCC(=O)O [TAT-scrambled, RKKRRQRRR-GG-RAFRPCPRWG (SEQ ID NO: 18), reference compound] (H-RKKRRQRRRGGRAFRPCPRWG-OH) | no effect
